Laboratory results published in patent publication US20120045391A1 (NATIONAL RESEARCH COUNCIL CANADA, published 2012).
Residue numbers refer to the chain shown, from its start.

What was measured:
[1] = molecular target: T1, IGFBP7 (recombinant; preparation not specified) (UniProt Q16270 27-282); assay: SPR, fit to a steady state model
T1 construct: also called immobilized IGFBP7; recombinant IGFBP7
T1 sequence (looked up): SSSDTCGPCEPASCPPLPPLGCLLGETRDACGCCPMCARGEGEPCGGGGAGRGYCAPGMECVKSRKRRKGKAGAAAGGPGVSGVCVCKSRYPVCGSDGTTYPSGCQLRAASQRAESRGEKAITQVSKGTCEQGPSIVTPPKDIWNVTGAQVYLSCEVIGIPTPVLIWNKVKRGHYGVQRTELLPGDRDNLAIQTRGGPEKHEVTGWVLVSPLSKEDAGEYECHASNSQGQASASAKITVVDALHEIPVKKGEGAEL

[2] = molecular target: T2, recombinant protein IGFBP7 from R&D (UniProt Q16270 27-282); assay: SPR, steady state analysis as Scatchard plot, IGFBP7 as ligand
T2 construct: Bought protein immobilized on the Biacore chip; also called recombinant IGFBP7
T2 sequence (looked up): T1 sequence (looked up)

[3] = molecular target: T3, recombinant custom-synthesized IGFBP7 (UniProt Q16270 27-282); assay: SPR, steady state analysis, IGFBP7 as ligand
T3 construct: also called custom-synthesized recombinant IGFBP7
T3 sequence (looked up): T1 sequence (looked up)

[4] = molecular target: T2, recombinant protein IGFBP7 from R&D; assay: SPR, steady state analysis, IGFBP7 as ligand

B1: sdAb clone 4.6-IGFBP7 (VHH)
VHH: QVKLEESGGGSVQPGGSLRLSCAASGRTFSRLAMGWFRQAPGKERELVAGISRSGDGTHYAYSVKGRFTISRDNAANTVELQMNSLKPEDTAVYFCAAARTAFYYYGNDYNYWGQGTQVTVSS
notes: also called IGFBP7-4.6; not shown: c-Myc detection tag and 5xHis purification tag added at the C-terminus by vector pSJF2
Kd [1]: ~1000 nM

B2: sdAb clone 4.43-IGFBP7 (VHH)
VHH: B1 VHH with S11L, P14A, F29S, S30R, L32Y, L47F
notes: not shown: c-Myc detection tag and 5xHis purification tag added at the C-terminus by vector pSJF2
Kd [2]: 50 nM | Kd [3]: 30 nM | Kd [4]: 40 nM
